The source of these data is the supplement of paper PMC11246515.

The nature of the series: total protein half-life in vivo (active degradation + dilution); higher = more stable protein.
The mark [1] stands for this setting: E. coli NCM3722 delta-lon, growth: N-lim chemostat, doubling time 6 h.
The mark [2] stands for this setting: wild type E. coli NCM3722, growth: C-lim chemostat, doubling time 3 h.
The mark [3] stands for this setting: wild type E. coli NCM3722, growth: P-lim chemostat, doubling time 6 h.
Setting [4] is: wild type E. coli NCM3722, growth: P-lim chemostat, doubling time 12 h.
Where [5] appears, read: E. coli NCM3722 delta-clpP, growth: N-lim chemostat, doubling time 6 h.
[6] abbreviates: E. coli NCM3722 delta-hslV, growth: N-lim chemostat, doubling time 6 h.
The mark [7] stands for this setting: E. coli NCM3722 delta-smpB, growth: N-lim chemostat, doubling time 6 h.
[8] abbreviates: wild type E. coli NCM3722, growth: C-lim chemostat, doubling time 6 h.
[9] abbreviates: wild type E. coli NCM3722, growth: C-lim chemostat, doubling time 12 h.
[10] abbreviates: wild type E. coli NCM3722, growth: N-lim chemostat, doubling time 6 h.
Where [11] appears, read: wild type E. coli NCM3722, growth: N-lim chemostat, doubling time 12 h.
Setting [12] is: E. coli NCM3722 delta-clpP delta-lon delta-hslV, growth: N-lim chemostat, doubling time 6 h.

± gives the standard deviation of the averaged measurements.

Turning to “MIEQFFRPDSVEQALELKRRYQDEAVWFAGGSKLNATPTRTDKKIAISLQDLELDWVDWDNGALRIGAMSRLQPLRDARFIPAALREALGFVYSRHVRNQSTIGGEIAARQEESVLLPVLLALDAELVFGNGETLSIEDYLACPCDRLLTEIIIKDPYRTCATRKISRSQAGLTVVTAAVAMTDHDGMRIALDGVASKALRLHDVEKQNLEGNALEQAVANAIFPQEDLRGSVAYKRYITGVLVADLYADCQQAGEEAV”, the “total protein half-life in vivo” value under setting [1] turned out to be 0.974 h.
For P0CK95, the “total protein half-life in vivo” value by setting is: under setting [2], 2.75 h; under setting [3], 6.26 ± 0.39 h; under setting [4], 13 ± 0.41 h.
As to “MSHVELQPGFDFQQAGKEVLAIERECLAELDQYINQNFTLACEKMFWCKGKVVVMGMGKSGHIGRKMAATFASTGTPSFFVHPGEAAHGDLGMVTPQDVVIAISNSGESSEITALIPVLKRLHVPLICITGRPESSMARAADVHLCVKVAKEACPLGLAPTSSTTATLVMGDALAVALLKARGFTAEDFALSHPGGALGRKLLLRVNDIMHTGDEIPHVKKTASLRDALLEVTRKNLGMTVICDDNMMIEGIFTDGDLRRVFDMGVDVRQLSIADVMTPGGIRVRPGILAVEALNLMQSRHITSVMVADGDHLLGVLHMHDLLRAGVV”, the “total protein half-life in vivo” value amounted to 4.95 ± 1.9 h under setting [5]; 4.36 ± 0.2 h under setting [6]; 4.95 ± 0.44 h under setting [1]; 4.2 ± 0.2 h under setting [7]; 2.92 ± 0.13 h under setting [2]; 5.27 ± 0.15 h under setting [8]. In addition, the “total protein half-life in vivo” value under setting [9] was 10.3 ± 2.3 h; the “total protein half-life in vivo” value under setting [10] turned out to be 4.29 ± 0.37 h; the “total protein half-life in vivo” value under setting [11] worked out at 7.36 ± 0.41 h; the “total protein half-life in vivo” value under setting [3] worked out at 5.827 ± 0.055 h; the “total protein half-life in vivo” value under setting [4] came out at 11.6 ± 0.54 h.
Turning to “MTTYDRNRNAITTGSRVMVSGTGHTGKILSIDTEGLTAEQIRRGKTVVVEGCEEKLAPLDLIRLGMN”, the “total protein half-life in vivo” value is, setting by setting: under setting [12], 4.22 ± 0.059 h; under setting [6], 4.25 ± 0.64 h; under setting [1], 4.53 ± 0.13 h; under setting [7], 4.42 ± 0.76 h; under setting [2], 2.88 ± 0.38 h; under setting [8], 4.16 ± 0.068 h. The “total protein half-life in vivo” value under setting [9] came out at 5.42 ± 0.38 h; the “total protein half-life in vivo” value under setting [10] is 4.075 ± 0.023 h; the “total protein half-life in vivo” value under setting [11] is 6.36 ± 0.21 h; the “total protein half-life in vivo” value under setting [3] was 4.52 ± 0.25 h; the “total protein half-life in vivo” value under setting [4] turned out to be 9.35 ± 0.55 h.
For the substance “MDKIHAMQLFIKVAELESFSRAADFFALPKGSVSRQIQALEHQLGTQLLQRTTRRVKLTPEGMTYYQRAKDVLSNLSELDGLFQQDATSISGKLRIDIPPGIAKSLLLPRLSEFLYLHPGIELELSSHDRPVDILHDGFDCVIRTGALPEDGVIARPLGKLTMVNCASPHYLTRFGYPQSPDDLTSHAIVRYTPHLGVHPLGFEVASVNGVQWFKSGGMLTVNSSENYLTAGLAGLGIIQIPRIAVREALRAGRLIEVLPGYRAEPLSLSLVYPQRRELSRRVNLFMQWLAGVMKEYLD”, the “total protein half-life in vivo” value is, setting by setting: under setting [12], 6.09 ± 0.38 h; under setting [5], 4.8 ± 0.34 h; under setting [6], 2.08 h; under setting [1], 3.35 ± 0.51 h; under setting [7], 2.76 h; under setting [2], 2.32 h. Further, the “total protein half-life in vivo” value came out at 3.43 ± 0.34 h under setting [8] and 7.24 ± 3.2 h under setting [9].
As for “MKPENKLPVLDLISAEMKTVVNTLQPDLPPWPATGTIAEQRQYYTLERRFWNAGAPEMATRAYMVPTKYGQVETRLFCPQPDSPATLFYLHGGGFILGNLDTHDRIMRLLASYSQCTVIGIDYTLSPEARFPQAIEEIVAACCYFHQQAEDYQINMSRIGFAGDSAGAMLALASALWLRDKQIDCGKVAGVLLWYGLYGLRDSVTRRLLGGVWDGLTQQDLQMYEEAYLSNDADRESPYYCLFNNDLTREVPPCFIAGAEFDPLLDDSRLLYQTLAAHQQPCEFKLYPGTLHAFLHYSRMMKTADEALRDGAQFFTAQL”, the “total protein half-life in vivo” value is, setting by setting: under setting [2], 3.18 ± 0.17 h; under setting [8], 5.349 ± 0.029 h; under setting [9], 8.02 ± 2.3 h; under setting [11], 11.6 h; under setting [3], 5.69 ± 1.1 h; under setting [4], 10.9 ± 1.4 h.
